Source: publication PMC7278358, “Kinetic parameters of human aspartate/asparagine–β-hydroxylase suggest that it has a possible function in oxygen sensing” (The Journal of Biological Chemistry, 2020)
Where “and” joins values, the source holds several entries; their conditions need not be identical. Identical values can stand only once. Like-named read-outs stand apart in the source and are kept apart here. One block for each molecule: values may come before it. Positions of bridges follow the written chain, without caps; N, C: chain ends. Non-standard residues stand in square brackets, D forms with d. No end group written: not given here.

Legend:
human His6–AspH315–758 [1] = biological target: T1, human His6–AspH315–758 (Homo sapiens, UniProt Q12797); assay: AspH steady-state kinetics from initial hydroxylation rates (SPE-MS, Michaelis–Menten); format: biochemical
T1 construct: a pET-28a(+) vector encoding for N-terminal His6-tagged AspH315–758 (His6–AspH315–758) was transformed into Escherichia coli BL21 (DE3) cells; made in house; host or cells: Escherichia coli BL21 (DE3)
T1 sequence (Q12797 315-758): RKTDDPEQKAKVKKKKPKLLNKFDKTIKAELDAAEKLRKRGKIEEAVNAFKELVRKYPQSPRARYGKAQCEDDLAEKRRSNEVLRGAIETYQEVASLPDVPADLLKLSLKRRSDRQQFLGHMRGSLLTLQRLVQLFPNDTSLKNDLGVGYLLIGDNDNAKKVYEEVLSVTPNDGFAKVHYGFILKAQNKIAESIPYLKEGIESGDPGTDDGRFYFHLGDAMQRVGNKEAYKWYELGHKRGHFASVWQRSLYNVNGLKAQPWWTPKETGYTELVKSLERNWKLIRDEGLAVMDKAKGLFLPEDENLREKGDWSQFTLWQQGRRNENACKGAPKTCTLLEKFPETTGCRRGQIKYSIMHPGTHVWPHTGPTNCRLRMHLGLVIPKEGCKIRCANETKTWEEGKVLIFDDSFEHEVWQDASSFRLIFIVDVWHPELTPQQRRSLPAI
Method: (§1) The reactions were monitored with a rate of 1 sample/25 s using the same SPE-MS configuration as described above. The data were analyzed as described above, and the slopes of the initial reaction rates (Fig. S6) were fitted to a Michaelis-Menten plot using nonlinear regression (GraphPad Prism 5). […] The reactions were monitored by SPE-MS with a rate of 1 sample/25 s using identical configurations as before. The data were analyzed as described, and the slopes of the initial reaction rates (Fig. […] The Morrison equation is as follows, where I is the inhibitor concentration, Ki is the dissociation constant of the inhibitor, ET is the total concentration of active enzyme, and vi/v0 is the fractional enzyme activity ([94]).

bovine AspH = system: bovine AspH; parameters: method as in PMID 2187868; settings: cited from earlier work
[2] = system: human 2OG oxygenases, including the PHDs and FIH; settings: read-out: 2OG Km app, most other human 2OG oxygenases; cited from earlier work
[3] = biological target: T2, His6–AspH_(315–758) (human) (UniProt Q12797)
T2 sequence: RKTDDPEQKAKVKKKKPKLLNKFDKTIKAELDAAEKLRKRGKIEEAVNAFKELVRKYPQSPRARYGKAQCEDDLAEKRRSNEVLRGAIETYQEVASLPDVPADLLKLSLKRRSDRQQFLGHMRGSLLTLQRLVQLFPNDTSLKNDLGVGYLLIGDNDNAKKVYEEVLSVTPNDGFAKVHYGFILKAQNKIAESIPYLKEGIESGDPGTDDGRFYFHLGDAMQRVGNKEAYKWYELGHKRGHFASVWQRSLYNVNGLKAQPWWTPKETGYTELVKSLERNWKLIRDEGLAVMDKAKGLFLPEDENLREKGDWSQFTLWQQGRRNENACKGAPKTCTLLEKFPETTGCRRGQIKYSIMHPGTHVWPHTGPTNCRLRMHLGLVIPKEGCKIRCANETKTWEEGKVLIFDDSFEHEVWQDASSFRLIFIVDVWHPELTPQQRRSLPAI

human His6–AspH315–758 [4] = biological target: T1, human His6–AspH315–758; assay: AspH activity assay: SPE-MS time course of peptide hydroxylation; format: biochemical; settings: 0.1 μM His6–AspH315–758, 2.0 μM peptide, 100 μM LAA, 10 μM FAS, 10 μM 2OG, 50 mM HEPES pH 7.5, 20 °C
Method: The substrate mixture (1.0 ml) containing 2.4 μM peptide, 120 μM LAA, 12 μM FAS, and 12 μM 2OG in 50 mM HEPES buffer (pH 7.5) was added into a well of a 2-ml volume 96-well assay plate (Greiner) at 20 °C under an ambient atmosphere. A blank sample was analyzed using a RapidFire RF 360 high-throughput sampling robot (Agilent) attached to an Agilent 6530 accurate mass quadrupole TOF mass spectrometer operated in the positive ionization mode. The enzyme mixture (0.2 ml), containing 0.6 μM His6–AspH315–758 in 50 mM HEPES buffer (pH 7.5), was then added to the well and thoroughly mixed. The RapidFire sampling robot was programmed to analyze 1 sample/min. The following SPE-MS conditions were used: assay samples were aspirated under vacuum for 0.4 s and loaded onto a C4 SPE cartridge. After loading, the C4 SPE cartridge was washed with 0.1% (v/v) aqueous formic acid to remove nonvolatile buffer salts (5 s, 1.5 ml/min). The peptide was then eluted from the SPE cartridge with 0.1% (v/v) aqueous formic acid in 85/15 (v/v) acetonitrile/water into the mass spectrometer (5 s, 1.25 ml/min). The SPE cartridge was re-equilibrated with 0.1% (v/v) aqueous formic acid (1 s, 1.25 ml/min). The mass spectrometer parameters were capillary voltage (3500 V), fragmentor voltage (150 V), gas temperature (350 °C), gas flow (12 liters/min). The m/z + 2 charge states of the substrate peptide and the product (hydroxylated) peptide were used to extract ion chromatogram data; peak areas were integrated using RapidFire Integrator software (Agilent). The data were exported into Microsoft Excel and used to calculate the percentage of conversion of the hydroxylation reaction using the equation: % conversion = 100 × (integral product peptide)/(integral substrate peptide + integral product peptide).

[5] = biological target: T2, His6–AspH_(315–758) (human); remark: listed apart in the source
[6] = substrate: O=C1O[C@H]([C@@H](O)CO)C(O)=C1O; assay: AspH steady-state kinetics from initial hydroxylation rates (SPE-MS, Michaelis–Menten); format: biochemical, human; settings: other: LAA varied; 50 μM FAS, 50 μM 2OG; hFX–CP101–119 substrate; n = 3; pH 7.5; 20.0 °C
Method: as §1

[7] = 2OG varied, 50 μM FAS, hFX–CP101–119 substrate, n = 3
[8] = Fe(II) varied, in the absence of LAA, 50 μM 2OG, hFX–CP101–119 substrate, n = 3
[9] = Fe(II) varied, in the presence of LAA (100 μM), 50 μM 2OG, hFX–CP101–119 substrate, n = 3

Molecule: O=C(O)CCC(=O)C(=O)O [2OG, 2-oxoglutarate]
kcat (human His6–AspH315–758 [1]; [7]): 0.19 ± 0.03 s⁻¹ | kcat/Km (human His6–AspH315–758 [1]; [7]): 320000 ± 70000 M⁻¹ s⁻¹ | vmax app (human His6–AspH315–758 [1]; 2OG varied, 50 μM FAS, monitoring hydroxylation of hFX–CP101–119, pH 7.5, 20 °C, n = 3): 0.0168 ± 0.0005 µM/s | Km (human His6–AspH315–758 [1]; 2OG varied, 50 μM FAS, monitoring hydroxylation of hFX–CP101–119, pH 7.5, 20 °C, n = 3, read-out: Km app): ~0.6 µM and 0.6 µM | Km (bovine AspH; read-out: 2OG Km app): ~5 µM | Km [2]: 1 to 25 µM

Km of AspH for the peptide substrate (steady-state kinetics of peptide hydroxylation, SPE-MS, 50 mM HEPES pH 7.5, 20 °C) [3]: 3 μM
Molecule: hC1r–CP_(165–183) (from UniProt P00736 165-183) (peptide)

vmax app (human His6–AspH315–758 [1]; Fe(II) (FAS) varied, in the absence of LAA, 50 μM 2OG, monitoring hydroxylation of hFX–CP101–119, pH 7.5, 20 °C, n = 3): 0.0168 ± 0.0004 µM/s | Km (human His6–AspH315–758 [1]; Fe(II) (FAS) varied, in the absence of LAA, 50 μM 2OG, monitoring hydroxylation of hFX–CP101–119, pH 7.5, 20 °C, n = 3, read-out: Km app): 4.76 ± 0.48 µM | vmax app (human His6–AspH315–758 [1]; Fe(II) (FAS) varied, in the presence of LAA (100 μM), 50 μM 2OG, monitoring hydroxylation of hFX–CP101–119, pH 7.5, 20 °C, n = 3): 0.0171 ± 0.0005 µM/s | Km (human His6–AspH315–758 [1]; Fe(II) (FAS) varied, in the presence of LAA (100 μM), 50 μM 2OG, monitoring hydroxylation of hFX–CP101–119, pH 7.5, 20 °C, n = 3, read-out: Km app): 1.42 ± 0.16 µM | kcat (human His6–AspH315–758 [1]; [8]): 0.19 ± 0.03 s⁻¹ | kcat/Km (human His6–AspH315–758 [1]; [8]): 40000 ± 10000 M⁻¹ s⁻¹ | kcat (human His6–AspH315–758 [1]; [9]): 0.19 ± 0.03 s⁻¹ | kcat/Km (human His6–AspH315–758 [1]; [9]): 130000 ± 30000 M⁻¹ s⁻¹
Molecule: ammonium iron(II) sulfate hexahydrate [Fe(II)]
Km (bovine AspH; read-out: Km app for Fe(II)): 3 µM

time to complete hydroxylation (human His6–AspH315–758 [4]; SPE-MS): 7 min | Hydroxylation t = 15 min (human His6–AspH315–758 [4]; % conversion by SPE-MS): >95% | Hydroxylation t = 200 min (human His6–AspH315–758 [4]; % conversion by SPE-MS): >95% | Hydroxylation t = 15 min (human His6–AspH315–758 [4]; % conversion by SPE-MS, listed as hFX-CP101-119): > 95% | vmax (human His6–AspH315–758 [1]; peptide as varied substrate, 0.1 μM His6–AspH315–758, 100 μM LAA, 20 μM FAS, 20 μM 2OG, 50 mM HEPES pH 7.5, 20 °C, SPE-MS, mean ± S.D., n = 3): 0.0178 ± 0.0013 µM/s | Km (human His6–AspH315–758 [1]; peptide as varied substrate, 0.1 μM His6–AspH315–758, 100 μM LAA, 20 μM FAS, 20 μM 2OG, 50 mM HEPES pH 7.5, 20 °C, SPE-MS, mean ± S.D., n = 3, read-out: Km): 1.19 ± 0.26 µM | kcat/Km (human His6–AspH315–758 [1]; peptide as varied substrate, 100 μM LAA, 20 μM FAS, 20 μM 2OG, pH 7.5, 20 °C, mean ± S.D., n = 3): 170000 ± 50000 M⁻¹ s⁻¹ | kcat (human His6–AspH315–758 [1]; peptide as varied substrate, based on active enzyme 90.8 nM (2,4-PDCA titration), 100 μM LAA, 20 μM FAS, 20 μM 2OG, pH 7.5, 20 °C, mean ± S.D., n = 3): 0.20 ± 0.03 s⁻¹
Molecule: hFX–CP101–119: thioether-linked cyclic peptide of hFX amino acids 101–119, Cys110 thiol linked to N-terminal chloroacetyl group, C-terminal amide ({CH2CO}-[dA]KDGLGEYTCTSLEGFEGK-NH2; thioether N-10; SMILES CC(C)C[C@@H]1NC(=O)CNC(=O)[C@H](CC(=O)O)NC(=O)[C@H](CCCCN)NC(=O)[C@@H](C)NC(=O)CSC[C@@H](C(=O)N[C@H](C(=O)N[C@@H](CO)C(=O)N[C@@H](CC(C)C)C(=O)N[C@@H](CCC(=O)O)C(=O)NCC(=O)N[C@@H](Cc2ccccc2)C(=O)N[C@@H](CCC(=O)O)C(=O)NCC(=O)N[C@@H](CCCCN)C(N)=O)[C@@H](C)O)NC(=O)[C@H]([C@@H](C)O)NC(=O)[C@H](Cc2ccc(O)cc2)NC(=O)[C@H](CCC(=O)O)NC(=O)CNC1=O)
substrate/product inhibition of AspH activity (human His6–AspH315–758 [1]; up to 16 μM hFX–CP101–119): neither hFX–CP101–119 nor its hydroxylated product inhibited AspH activity

hydroxylation of the peptide by AspH (SPE-MS), t = 15 min to 200 min [5]: < 1%
Molecule: hFXII–CP_(110–128) (from UniProt P00748 110-128) (peptide)

conversion at which hydroxylation slowed (consumption of the noncanonical disulfide isomer) (human His6–AspH315–758 [4]; after 5 min): ~45%
Molecule: hFX–EGFD1_86–124: EGFD1 (amino acids 86–124) of human coagulation factor X (DGDQCETSPCQNQGKCKDGLGEYTCTCLEGFEGKNCELF-NH2; also: mixture of canonical and noncanonical disulfide isomers; UniProt P00742 86-124, looked up, fragment)

Km of AspH for the peptide substrate (steady-state kinetics of peptide hydroxylation, SPE-MS, 50 mM HEPES pH 7.5, 20 °C) [3]: 1.71 μM
Molecule: hProC–CP_(111–129) (from UniProt P04070 111-129) (peptide)

Km of AspH for the peptide substrate (steady-state kinetics of peptide hydroxylation, SPE-MS, 50 mM HEPES pH 7.5, 20 °C) [3]: 36.5 μM
Molecule: hC1s–CP_(147–165) (from UniProt P09871 147-165) (peptide)

Km of AspH for the peptide substrate (steady-state kinetics of peptide hydroxylation, SPE-MS, 50 mM HEPES pH 7.5, 20 °C) [3]: 1.19 μM
Molecule: hFX–CP_(101–119) (from UniProt P00742 101-119) (peptide)

B1: human His6–AspH315–758 (Homo sapiens) (protein)
chain: RKTDDPEQKAKVKKKKPKLLNKFDKTIKAELDAAEKLRKRGKIEEAVNAFKELVRKYPQSPRARYGKAQCEDDLAEKRRSNEVLRGAIETYQEVASLPDVPADLLKLSLKRRSDRQQFLGHMRGSLLTLQRLVQLFPNDTSLKNDLGVGYLLIGDNDNAKKVYEEVLSVTPNDGFAKVHYGFILKAQNKIAESIPYLKEGIESGDPGTDDGRFYFHLGDAMQRVGNKEAYKWYELGHKRGHFASVWQRSLYNVNGLKAQPWWTPKETGYTELVKSLERNWKLIRDEGLAVMDKAKGLFLPEDENLREKGDWSQFTLWQQGRRNENACKGAPKTCTLLEKFPETTGCRRGQIKYSIMHPGTHVWPHTGPTNCRLRMHLGLVIPKEGCKIRCANETKTWEEGKVLIFDDSFEHEVWQDASSFRLIFIVDVWHPELTPQQRRSLPAI
notes: a pET-28a(+) vector encoding for N-terminal His6-tagged AspH315–758 (His6–AspH315–758) was transformed into Escherichia coli BL21 (DE3) cells; made in house; host or cells: Escherichia coli BL21 (DE3)
kcat [6]: 0.16 ± 0.03 s⁻¹
